Paper PMC6614801

Legend:
[1] = target: N-terminally His6-tagged NusA^AR2 (E. coli) (UniProt P0AFF6); test: SPR; Biacore, Sensor Chip NTA, 20°C; N-terminally His6-tagged NusA^AR2 immobilised; single cycle kinetics with SuhB variants at 25, 50, 100, 150 and 200 nM; 20 mM HEPES–NaOH pH 7.5, 50 mM NaCl, 1 mM DTT
[2] = system: SuhB (Escherichia coli DH5α); test: double filter binding; details: Hill slope fit, 50 nM RNA, Filter binding: 20 mM HEPES-NaOH pH 7.5, 50 mM NaCl, 1 mM DTT, room temperature, 20 min, SEC buffer not in material

Kd [1] [µM] | Substance | Kd [2] [µM]
141 | SuhB^KL251/254AA (from UniProt P0ADG4 1-267) (natural protein) | 
 | rrnGnut RNA | 3.2
